Measured values published in publication PMC11233663, “ZBP1 condensate formation synergizes Z-NAs recognition and signal transduction” (Cell Death & Disease, 2024).
Each block holds one molecule with its values, some of them ahead of it.

Experiments:
Thioflavin T (ThT) = assay: ThT binding assay (ThT fluorescence emission spectrum); details: read off a plot
[1] = target: human ZBP1-Zαβ (residues 1-166) (human) (UniProt Q9H171); assay: SAXS; ZBP1-Zαβ at 5 mg/mL, 20 mM Tris-HCl pH 7.4, 100 mM NaCl
[2] = target: human ZBP1-Zαβ (residues 1-166) (human) (UniProt Q9H171); assay: dynamic light scattering; ZBP1-Zαβ at 5 mg/mL (high concentration), 20 mM Tris-HCl pH 7.4, 100 mM NaCl, room temperature
[3] = target: the molecule itself; assay: negative-staining electron microscopy; purified proteins on carbon films, 0.2% uranyl acetate
[4] = target: the molecule itself; assay: SEC; Superdex 200 10/300, 20 mM Tris-HCl, 1 M NaCl, pH 7.5; elution at the void position
mCherry-ZBP1-Zαβ = target: T1, mCherry-ZBP1-Zαβ (Homo sapiens, UniProt Q9H171 1-166); assay: in vitro co-condensation (microscopy); Z-RNA promotes condensates; EMSA: protein 0, 5, 10, 20 nM with 10 nM dsDNA, on ice 1 h, 6% polyacrylamide; protein and DNA stocks in 20 mM Tris-HCl pH 7.4, 100 mM NaCl; details: protein: recombinant; tags: mCherry fusion; label: 5'-FAM
T1 sequence: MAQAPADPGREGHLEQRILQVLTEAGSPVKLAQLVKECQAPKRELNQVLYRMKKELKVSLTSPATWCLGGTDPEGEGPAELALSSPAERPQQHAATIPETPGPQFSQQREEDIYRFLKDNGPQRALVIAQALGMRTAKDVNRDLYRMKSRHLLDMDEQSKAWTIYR

- response (Thioflavin T (ThT); parent: est. 1900): 1200
Molecule: ZBP1-RHIM1 (residues 168-224) (from UniProt Q9H171) I206A; Q207A; I208A; G209A

- stoichiometry N [1]: 2
- stoichiometry N [2]: 2
Molecule: human ZBP1-Zαβ (residues 1-166) (from UniProt Q9H171 1-166) (domain or fragment)

- response (Thioflavin T (ThT); parent: est. 2300): 880
Molecule: ZBP1-RHIM 1 + 2 (residues 168-280) (from UniProt Q9H171) I206A; Q207A; I208A; G209A

B1: ZBP1-RHIM1 AAAA (domain or fragment, human, UniProt Q9H171 168-224, looked up)
chain: EDSGRRAKSASIIYQHNPINMICQNGPNSWISIANSEAAAAAHGNIITRQTVSREDG
notes: also called 4 A mutant of ZBP1-RHIM 1; 4 A; source: E. coli BL21 Codonplus (DE3)-RIPL, purified (Ni-NTA, Superdex 200 10/300)
- binding result [3]: binds

B2: ZBP1-RHIM1 (residues 168-224) (domain or fragment, human, UniProt Q9H171 168-224, looked up)
chain: EDSGRRAKSASIIYQHNPINMICQNGPNSWISIANSEAIQIGHGNIITRQTVSREDG
notes: the tag is inferred from the purification; source: E. coli BL21 Codonplus (DE3)-RIPL, purified (Ni-NTA, Superdex 200 10/300)
- binding result [4]: binds

B3: ZBP1-RHIM1 + 2 AAAA (domain or fragment, human, UniProt Q9H171 168-280, looked up)
chain: EDSGRRAKSASIIYQHNPINMICQNGPNSWISIANSEAAAAAHGNIITRQTVSREDGSAGPRHLPSMAPGDSSTWGTLVDPWGPQDIHMEQSILRRVQLGHSNEMRLHGVPSE
notes: also called 4 A mutant of RHIM 1 + 2; 4 A; source: E. coli BL21 Codonplus (DE3)-RIPL, purified (Ni-NTA, Superdex 200 10/300)
- binding result [3]: binds

B4: ZBP1-RHIM 1 + 2 (residues 168-280) (domain or fragment, human, UniProt Q9H171 168-280, looked up)
chain: EDSGRRAKSASIIYQHNPINMICQNGPNSWISIANSEAIQIGHGNIITRQTVSREDGSAGPRHLPSMAPGDSSTWGTLVDPWGPQDIHMEQSILRRVQLGHSNEMRLHGVPSE
notes: the tag is inferred from the purification; also called RHIM 1 + 2 high-oligomer seed; source: E. coli BL21 Codonplus (DE3)-RIPL, purified (Ni-NTA, Superdex 200 10/300)
- binding result [4]: binds

Molecule: ACGCGCGCGCGUUUUUGCGCGCGCGC (structured_RNA, 2'-O-methyl-8-methylguanosine (m8Gm), positions not given) [Z-RNA]
- binding result (mCherry-ZBP1-Zαβ): binds
